Laboratory results reported in patent US8173397B2, “Folded recombinant catalytic fragments of multidomain serine proteases, preparation and uses thereof” (TargetEx Kft., priority 2002, dated 2012).

Legend:
C3(NH3) = molecular target: T1, C3(NH3) (Homo sapiens, UniProt P01024); test: Cleavage of dead C3, C3(NH3), by MASP fragments, SDS-PAGE densitometry; type: biochemical; conditions: control experiment
T1 construct: was isolated from fresh human serum; from tissue; host or cells: fresh human serum, then amidolysis with ammonium hydrogen carbonate
Description: Amidolysis of C3 The intact thiol ester bond in ‘live’ C3 was cleaved using ammonium salt as the nucleophile to obtain ‘dead’ C3(NH3), according to Soames and Sim (1997) with modifications. C3 was incubated with a final concentration of 0.2 M ammonium hydrogen carbonate for 90 min at 37° C., making sure that the final pH of the reaction was above 8.0. At the end of the incubation, the reaction was collected with a brief centrifugation (5 min, 8000 g, RT) and dialyzed against 20 mM HEPES, 140 mM NaCl, pH 7.4.
C2, C3, C3(NH3), C4 cleavage—Serial dilutions of MASP-1 and MASP-2 fragments ranging between concentrations of 1 μM and 10 pM were incubated at 37° C. in 20 mM HEPES, 140 mM NaCl, pH 7.4 with C2, C3, C3(NH3) or C4 at typical concentrations of 0.5-1 μM. The cleavage was followed by SDS-PAGE under reducing conditions. Desirable concentrations of the MASP fragments for further detailed kinetic analysis were chosen to be where half of the protein substrates were hydrolyzed during the first 20 minutes of incubation. […] Cleavages rates were quantified by measuring the diminution of the cleaved chain visualized by Coomassie stained SDS-PAGs using a GEL DOC 1000 instrument and Molecular Analyst Software for densitometric calculations (Bio-Rad, Hercules, Calif., USA). […]

live C3 = molecular target: T2, live C3 (Homo sapiens, UniProt P01024); test: Cleavage of live C3 by MASP fragments, SDS-PAGE densitometry; type: biochemical; conditions: control experiment
T2 construct: was isolated from fresh human serum; from tissue; host or cells: fresh human serum
Description: C2, C3, C3(NH3), C4 cleavage—Serial dilutions of MASP-1 and MASP-2 fragments ranging between concentrations of 1 μM and 10 pM were incubated at 37° C. in 20 mM HEPES, 140 mM NaCl, pH 7.4 with C2, C3, C3(NH3) or C4 at typical concentrations of 0.5-1 μM. The cleavage was followed by SDS-PAGE under reducing conditions. Desirable concentrations of the MASP fragments for further detailed kinetic analysis were chosen to be where half of the protein substrates were hydrolyzed during the first 20 minutes of incubation. The protein substrates C2, C3, C3(NH3) or C4 were then incubated with the selected concentrations of the MASP fragments at 37° C. in 20 mM HEPES, 140 mM NaCl, pH 7.4. Typically 11-13 samples were taken at varying time periods but always within 50 minutes from the beginning of the reaction. Cleavages rates were quantified by measuring the diminution of the cleaved chain visualized by Coomassie stained SDS-PAGs using a GEL DOC 1000 instrument and Molecular Analyst Software for densitometric calculations (Bio-Rad, Hercules, Calif., USA). The reactions were assumed to be of the Michaelis-Menten type. In the case of C3 and C3(NH3) cleavage a further reasonable assumption of KM>>[substrate] was made. […]

[1] = Differential scanning calorimetry of C1r fragments; type: physicochemical; conditions: 20 mM Tris pH 8.3, 145 mM NaCl, 0.1 mg/ml, 1° C./min
Description: Calorimetric measurements were performed on a VP-DSC (Microcal Inc, Northampton, Mass.) differential scanning calorimeter. Denaturation curves were recorded between 10 and 80° C. at a pressure of 2.5 atm, using a scanning rate of 1° C./min. The protein concentration was set to 0.1 mg/ml. Samples were dialyzed against 20 mM Tris pH 8.3 145 mM NaCl, and the dialysis buffer was used as a reference. Heat capacities were calculated as outlined by Privalov (16).

T2 sequence (P01024 672-1663 limits assumed): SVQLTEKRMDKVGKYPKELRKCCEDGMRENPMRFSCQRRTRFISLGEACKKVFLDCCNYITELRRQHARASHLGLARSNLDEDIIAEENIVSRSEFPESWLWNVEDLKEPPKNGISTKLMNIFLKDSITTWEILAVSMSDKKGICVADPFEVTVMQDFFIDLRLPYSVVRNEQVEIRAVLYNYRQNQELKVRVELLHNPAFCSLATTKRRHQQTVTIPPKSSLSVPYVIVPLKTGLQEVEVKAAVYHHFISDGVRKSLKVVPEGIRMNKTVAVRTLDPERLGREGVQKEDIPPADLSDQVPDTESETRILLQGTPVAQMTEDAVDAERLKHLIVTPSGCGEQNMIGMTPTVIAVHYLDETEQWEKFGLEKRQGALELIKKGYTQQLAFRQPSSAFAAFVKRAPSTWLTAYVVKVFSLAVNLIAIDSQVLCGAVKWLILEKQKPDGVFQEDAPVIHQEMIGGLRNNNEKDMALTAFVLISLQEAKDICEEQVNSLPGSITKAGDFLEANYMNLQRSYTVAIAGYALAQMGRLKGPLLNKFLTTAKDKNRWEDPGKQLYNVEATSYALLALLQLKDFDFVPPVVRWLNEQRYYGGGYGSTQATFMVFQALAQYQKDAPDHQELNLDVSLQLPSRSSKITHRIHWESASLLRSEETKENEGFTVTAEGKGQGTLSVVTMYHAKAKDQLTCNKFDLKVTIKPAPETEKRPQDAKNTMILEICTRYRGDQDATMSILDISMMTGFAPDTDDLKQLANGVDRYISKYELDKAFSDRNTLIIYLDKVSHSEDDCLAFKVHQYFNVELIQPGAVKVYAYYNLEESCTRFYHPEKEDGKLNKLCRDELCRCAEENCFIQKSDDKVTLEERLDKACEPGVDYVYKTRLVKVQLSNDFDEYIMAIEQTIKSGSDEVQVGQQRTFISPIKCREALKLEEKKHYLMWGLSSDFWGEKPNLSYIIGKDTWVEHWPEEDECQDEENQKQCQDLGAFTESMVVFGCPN
T2 sequence (P01024 23-667 partner limits assumed): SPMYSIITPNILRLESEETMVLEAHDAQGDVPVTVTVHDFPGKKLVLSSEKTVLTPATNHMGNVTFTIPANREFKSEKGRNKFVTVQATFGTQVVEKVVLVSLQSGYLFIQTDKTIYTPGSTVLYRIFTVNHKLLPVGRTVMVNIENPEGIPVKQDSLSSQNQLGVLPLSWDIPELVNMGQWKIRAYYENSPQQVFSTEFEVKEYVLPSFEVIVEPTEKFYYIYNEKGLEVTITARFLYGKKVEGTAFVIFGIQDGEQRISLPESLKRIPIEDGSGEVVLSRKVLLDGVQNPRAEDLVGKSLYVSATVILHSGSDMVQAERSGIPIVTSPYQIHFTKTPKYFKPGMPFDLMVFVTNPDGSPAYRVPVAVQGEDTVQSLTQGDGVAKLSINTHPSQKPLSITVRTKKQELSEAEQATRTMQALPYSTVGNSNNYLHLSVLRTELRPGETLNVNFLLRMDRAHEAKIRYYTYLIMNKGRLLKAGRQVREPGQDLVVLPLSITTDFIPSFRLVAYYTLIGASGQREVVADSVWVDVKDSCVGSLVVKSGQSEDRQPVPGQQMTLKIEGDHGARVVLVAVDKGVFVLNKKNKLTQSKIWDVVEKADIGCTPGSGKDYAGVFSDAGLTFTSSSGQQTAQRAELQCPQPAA
T1 sequence (P01024 672-1663 limits assumed): as the sequence (P01024 672-1663 limits assumed) above
T1 sequence (P01024 23-667 partner limits assumed): as the sequence (P01024 23-667 partner limits assumed) above

B1: CCP1-CCP2-SP: E. coli-expressed, refolded human C1r CCP1-CCP2-SP fragment, amino acids 309-705, N-terminal Ser-Thr-Gln-Ala (protein)
chain 1: STQACPQPKTLDEFTIIQNLQPQYQFRDYFIATCKQGYQLIEGNQVLHSFTAVCQDDGTWHRAMPRCKIKDCGQPRNLPNGDFRYTTTMGVNTYKARIQYYCHEPYYKMQTRAGSRESEQGVYTCTAQGIWKNEQKGEKIPRCLPVCGKPVNPVEQRQR
chain 2: IIGGQKAKMGNFPWQVFTNIHGRGGGALLGDRWILTAAHTLYPKEHEAQSNASLDVFLGHTNVEELMKLGNHPIRRVSVHPDYRQDESYNFEGDIALLELENSVTLGPNLLPICLPDNDTFYDLGLMGYVSGFGVMEEKIAHDLRFVRLPVANPQACENWLRGKNRMDVFSQNMFCAGHPSLKQDACQGDSGGVFAVRDPNTDRWVATGIVSWGIGCSRGYGFYTKVLNYVDWIKKEMEEED
cleavage of 'dead' C3, in words (C3(NH3)): no cleavages | cleavage of 'live' C3, in words (live C3): no cleavages | DSC melting / unfolding transition temperature [1]: 57.5 °C

B2: CCP2-SP: E. coli-expressed, refolded human C1r CCP2-SP fragment, amino acids 376-705, N-terminal Ser-Thr-Gln-Ala (protein)
chain 1: STQACGQPRNLPNGDFRYTTTMGVNTYKARIQYYCHEPYYKMQTRAGSRESEQGVYTCTAQGIWKNEQKGEKIPRCLPVCGKPVNPVEQRQR
chain 2: IIGGQKAKMGNFPWQVFTNIHGRGGGALLGDRWILTAAHTLYPKEHEAQSNASLDVFLGHTNVEELMKLGNHPIRRVSVHPDYRQDESYNFEGDIALLELENSVTLGPNLLPICLPDNDTFYDLGLMGYVSGFGVMEEKIAHDLRFVRLPVANPQACENWLRGKNRMDVFSQNMFCAGHPSLKQDACQGDSGGVFAVRDPNTDRWVATGIVSWGIGCSRGYGFYTKVLNYVDWIKKEMEEED
DSC melting / unfolding transition temperature [1]: 55.4 °C
